Test results taken from patent publication US20210163538A1 (published 2021).
*1 amine or outer side, *2 acyl side, *3 side chain or, on linkers, in order; H or OH if unused. Bridges are numbered along the chain shown (N, C = ends). [ ]: non-standard residue; d: D form. AlexaFluor 647 = AlexaFluor 647 dye coupled as NHS ester to the Lys amine; Tyr(Me) = O-methyltyrosine, COc1ccc(C[C@H](N[*:1])C(=O)[*:2])cc1; Trp(5-F) = N[C@@H](Cc1c[nH]c2ccc(F)cc12)C(=O)O; mXylylene = c1cc(C[*:1])cc(C[*:2])c1; αMeP = C[C@@]1(C(=O)O)CCCN1; Mpa = O=C(O)CCS

How the values were obtained:
biotinylated PCSK9 [1] = biological target: T1, biotinylated PCSK9 (UniProt Q8NBP7 31-692, limits assumed, biotinylated (site not stated)); test: method not stated; KD of the labelled probe of the Alexa FRET Standard assay
T1 construct: also called europium-labeled PCSK9

biotinylated PCSK9 [2] = biological target: T1, biotinylated PCSK9; test: method not stated; KD of the labelled probe of the Alexa FRET Plus assay

T1 sequence (Q8NBP7 31-692 limits assumed): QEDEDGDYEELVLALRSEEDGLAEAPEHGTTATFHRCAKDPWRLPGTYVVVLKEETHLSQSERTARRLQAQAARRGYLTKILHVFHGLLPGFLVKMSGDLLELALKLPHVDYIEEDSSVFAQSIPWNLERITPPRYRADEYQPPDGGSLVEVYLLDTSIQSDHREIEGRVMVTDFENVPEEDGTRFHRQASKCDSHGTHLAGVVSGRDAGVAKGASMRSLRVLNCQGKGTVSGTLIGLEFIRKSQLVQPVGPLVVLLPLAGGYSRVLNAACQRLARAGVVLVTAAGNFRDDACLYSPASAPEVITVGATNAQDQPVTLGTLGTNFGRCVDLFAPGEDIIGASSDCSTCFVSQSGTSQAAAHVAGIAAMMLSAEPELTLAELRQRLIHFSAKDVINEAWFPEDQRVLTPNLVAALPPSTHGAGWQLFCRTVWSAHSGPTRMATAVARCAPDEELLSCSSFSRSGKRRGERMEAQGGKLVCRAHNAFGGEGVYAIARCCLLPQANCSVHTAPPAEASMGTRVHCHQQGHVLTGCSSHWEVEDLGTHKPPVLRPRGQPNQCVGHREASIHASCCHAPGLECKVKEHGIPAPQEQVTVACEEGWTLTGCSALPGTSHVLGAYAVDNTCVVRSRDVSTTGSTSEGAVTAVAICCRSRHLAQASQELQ

Kd (biotinylated PCSK9 [1])	Kd (biotinylated PCSK9 [2])	Binder
83 nM	–	[Mpa]K(AlexaFluor 647)G[Trp(5-F)][Trp(5-F)]DHY[αMeP]C-NH2 (linker N-10 via mXylylene, also called AlexaFluor647 (AF) tagged cyclic peptide; AF cyclic peptide) [Reagent A]
–	35 nM	[Mpa]K(AlexaFluor 647)[dA][Trp(5-F)][Trp(5-F)]DH[Tyr(Me)][αMeP]C-NH2 (linker N-10 via mXylylene, also called AlexaFluor647 (AF) tagged cyclic peptide; AF cyclic peptide) [Reagent B]
